# Test results reported in article PMC8983666, “Structural and biochemical characterisation of the Providencia stuartii arginine decarboxylase shows distinct polymerisation and regulation” (Communications Biology, 2022).
# What was measured:
# N=C(N)NCCC[C@H](N)C(=O)O = experiment: purified protein; settings: pH 5 (100 mM acetic acid-sodium acetate), 100 mM NaCl, 0.1 mM PLP, 10% glycerol, 20 °C, 10 nM Adc, decarboxylation to agmatine, parentheses = 2.5%-97.5% confidence interval
# [1] = target: Providencia stuartii arginine decarboxylase Adc (Providencia stuartii); experiment: mass photometry; Refeyn OneMP; 30 nM Adc at pH 5.0 and 20 nM Adc at pH 6.5; only the decamer and species below it analysed
# [2] = target: Providencia stuartii arginine decarboxylase Adc (Providencia stuartii); experiment: cryo-EM structure; isolated Adc decamer, about 0.25 mg/mL, 25 mM MES, 150 mM NaCl, 1 mM DTT, 0.1 mM PLP, pH 6.5; D5 symmetry
stoichiometry N [1],stoichiometry N [2],Substance,Km (N=C(N)NCCC[C@H](N)C(=O)O),kcat (N=C(N)NCCC[C@H](N)C(=O)O)
,,Providencia stuartii arginine decarboxylase (Adc) (Providencia stuartii),"0.331 (0.28, 0.38) mM","102 (97, 108) s^-1"
10,10,Providencia stuartii arginine decarboxylase Adc (enzyme),,
